Consider 2 proteins from publication PMC9169620, “Helical self-assembly of a mucin segment suggests an evolutionary origin for von Willebrand factor tubules” (Proceedings of the National Academy of Sciences of the …, 2022).

Data set [1] deals with the molecule itself. Nature of the data set: dynamic light scattering; MUC2 D1D2D3 at 0.3 mg/mL in 50 mM MES at varying pH, 150 mM NaCl, 37 °C; large species at pH 5.8 and below.
Data set [2] concerns the molecule itself. Nature of the data set: negative stain TEM; MUC2 D1D2D3 at 0.3 mg/mL in 50 mM MES (pH 5.4), 225 mM NaCl, 10 mM CaCl2, 37 °C for 24 h; diluted to 0.03 mg/mL, stained with 2% uranyl acetate.

B1: MUC2 D1D2D3 (residues 21 to 1259 followed by a His6 tag) (domain or fragment, human, UniProt Q02817 21-1259, looked up)
chain: SELQTEGRTRNHGHNVCSTWGNFHYKTFDGDVFRFPGLCDYNFASDCRGSYKEFAVHLKRGPGQAEAPAGVESILLTIKDDTIYLTRHLAVLNGAVVSTPHYSPGLLIEKSDAYTKVYSRAGLTLMWNREDALMLELDTKFRNHTCGLCGDYNGLQSYSEFLSDGVLFSPLEFGNMQKINQPDVVCEDPEEEVAPASCSEHRAECERLLTAEAFADCQDLVPLEPYLRACQQDRCRCPGGDTCVCSTVAEFSRQCSHAGGRPGNWRTATLCPKTCPGNLVYLESGSPCMDTCSHLEVSSLCEEHRMDGCFCPEGTVYDDIGDSGCVPVSQCHCRLHGHLYTPGQEITNDCEQCVCNAGRWVCKDLPCPGTCALEGGSHITTFDGKTYTFHGDCYYVLAKGDHNDSYALLGELAPCGSTDKQTCLKTVVLLADKKKNVVVFKSDGSVLLNELQVNLPHVTASFSVFRPSSYHIMVSMAIGVRLQVQLAPVMQLFVTLDQASQGQVQGLCGNFNGLEGDDFKTASGLVEATGAGFANTWKAQSSCHDKLDWLDDPCSLNIESANYAEHWCSLLKKTETPFGRCHSAVDPAEYYKRCKYDTCNCQNNEDCLCAALSSYARACTAKGVMLWGWREHVCNKDVGSCPNSQVFLYNLTTCQQTCRSLSEADSHCLEGFAPVDGCGCPDHTFLDEKGRCVPLAKCSCYHRGLYLEAGDVVVRQEERCVCRDGRLHCRQIRLIGQSCTAPKIHMDCSNLTALATSKPRALSCQTLAAGYYHTECVSGCVCPDGLMDDGRGGCVVEKECPCVHNNDLYSSGAKIKVDCNTCTCKRGRWVCTQAVCHGTCSIYGSGHYITFDGKYYDFDGHCSYVAVQDYCGQNSSLGSFSIITENVPCGTTGVTCSKAIKIFMGRTELKLEDKHRVVIQRDEGHHVAYTTREVGQYLVVESSTGIIVIWDKRTTVFIKLAPSYKGTVCGLCGNFDHRSNNDFTTRDHMVVSSELDFGNSWKEAPTCPDVSTNPEPCSLNPHRRSWAEKQCSILKSSVFSICHSKVDPKPFYEACVHDSCSCDTGGDCECFCSAVASYAQECTKEGACVFWRTPDLCPIFCDYYNPPHECEWHYEPCGNRSFETCRTINGIHSNISVSYLEGCYPRCPKDRPIYEEDLKKCVTADKCGCYVEDTHYPPGASVPTEETCKSCVCTNSSQVVCRPEEGKILNQTQDGAFCYWEICGPNGTVEKHFNICSIT
notes: Mucin-2 (MUC2), human intestinal gel-forming mucin, amino-terminal D1D2D3 region, residues 21 to 1259, without CysD1; The dimers assemble into two-start helical tubules at acidic pH; also called D1D2D3 fragment; MUC2 amino-terminal fragment spanning the D1D2D3 region but lacking CysD1; source: HEK 293F, transient transfection, purified from culture medium (Ni-NTA); not shown: His6, C-terminal, …
Regarding B1, in data set [1], the binding result is recorded as “binds”.

B2: MUC2 D1D2D3, with an amino-terminal His6 tag and TEV protease cleavage site and lacking a carboxy-terminal His6 (domain or fragment, human, UniProt Q02817 21-1259, looked up)
chain: SELQTEGRTRNHGHNVCSTWGNFHYKTFDGDVFRFPGLCDYNFASDCRGSYKEFAVHLKRGPGQAEAPAGVESILLTIKDDTIYLTRHLAVLNGAVVSTPHYSPGLLIEKSDAYTKVYSRAGLTLMWNREDALMLELDTKFRNHTCGLCGDYNGLQSYSEFLSDGVLFSPLEFGNMQKINQPDVVCEDPEEEVAPASCSEHRAECERLLTAEAFADCQDLVPLEPYLRACQQDRCRCPGGDTCVCSTVAEFSRQCSHAGGRPGNWRTATLCPKTCPGNLVYLESGSPCMDTCSHLEVSSLCEEHRMDGCFCPEGTVYDDIGDSGCVPVSQCHCRLHGHLYTPGQEITNDCEQCVCNAGRWVCKDLPCPGTCALEGGSHITTFDGKTYTFHGDCYYVLAKGDHNDSYALLGELAPCGSTDKQTCLKTVVLLADKKKNVVVFKSDGSVLLNELQVNLPHVTASFSVFRPSSYHIMVSMAIGVRLQVQLAPVMQLFVTLDQASQGQVQGLCGNFNGLEGDDFKTASGLVEATGAGFANTWKAQSSCHDKLDWLDDPCSLNIESANYAEHWCSLLKKTETPFGRCHSAVDPAEYYKRCKYDTCNCQNNEDCLCAALSSYARACTAKGVMLWGWREHVCNKDVGSCPNSQVFLYNLTTCQQTCRSLSEADSHCLEGFAPVDGCGCPDHTFLDEKGRCVPLAKCSCYHRGLYLEAGDVVVRQEERCVCRDGRLHCRQIRLIGQSCTAPKIHMDCSNLTALATSKPRALSCQTLAAGYYHTECVSGCVCPDGLMDDGRGGCVVEKECPCVHNNDLYSSGAKIKVDCNTCTCKRGRWVCTQAVCHGTCSIYGSGHYITFDGKYYDFDGHCSYVAVQDYCGQNSSLGSFSIITENVPCGTTGVTCSKAIKIFMGRTELKLEDKHRVVIQRDEGHHVAYTTREVGQYLVVESSTGIIVIWDKRTTVFIKLAPSYKGTVCGLCGNFDHRSNNDFTTRDHMVVSSELDFGNSWKEAPTCPDVSTNPEPCSLNPHRRSWAEKQCSILKSSVFSICHSKVDPKPFYEACVHDSCSCDTGGDCECFCSAVASYAQECTKEGACVFWRTPDLCPIFCDYYNPPHECEWHYEPCGNRSFETCRTINGIHSNISVSYLEGCYPRCPKDRPIYEEDLKKCVTADKCGCYVEDTHYPPGASVPTEETCKSCVCTNSSQVVCRPEEGKILNQTQDGAFCYWEICGPNGTVEKHFNICSIT
notes: Mucin-2 (MUC2), human, D1D2D3 region; Made by restriction-free cloning from the plasmid of m1; also called D1D2D3 fragment produced with an amino-terminal His6 tag that was removed proteolytically; source: HEK 293F, transient transfection, purified from culture medium (Ni-NTA); tag removed proteolytically during purification; not shown: His6, N-terminal, cleaved
B2: the binding result in data set [2] was “binds”.
